In article PMC2783993 (Biotechnology progress, 2009):

Target: the molecule itself
Assay: LC-MS

B1: bovine hemoglobin β globin chain (natural protein)
chain: not shown
Q: Which “stoichiometry N” value does the source give for B1 here?
A: 2
